The source of these data is publication PMC8053096 (Nucleic Acids Research, 2021).

The data set deals with the molecule itself. The data set is described as follows: SEC. A general note: In gel filtration, larger molecules generally elute earlier.

B1: full-length Escherichia coli Lhr (enzyme, Escherichia coli K-12 MG1655)
chain: SEFELRRQACMADNPDPSSLLPDVFSPATRDWFLRAFKQPTAVQPQTWHVAARSEHALVIAPTGSGKTLAAFLYALDRLFREGGEDTREAHKRKTSRILYISPIKALGTDVQRNLQIPLKGIADERRRRGETEVNLRVGIRTGDTPAQERSKLTRNPPDILITTPESLYLMLTSRARETLRGVETVIIDEVHAVAGSKRGAHLALSLERLDALLHTSAQRIGLSATVRSASDVAAFLGGDRPVTVVNPPAMRHPQIRIVVPVANMDDVSSVASGTGEDSHAGREGSIWPYIETGILDEVLRHRSTIVFTNSRGLAEKLTARLNELYAARLQRSPSIAVDAAHFESTSGATSNRVQSSDVFIARSHHGSVSKEQRAITEQALKSGELRCVVATSSLELGIDMGAVDLVIQVATPLSVASGLQRIGRAGHQVGGVSKGLFFPRTRRDLVDSAVIVECMFAGRLENLTPPHNPLDVLAQQTVAAAAMDALQVDEWYSRVRRAAPWKDLPRRVFDATLDMLSGRYPSGDFSAFRPKLVWNRETGILTARPGAQLLAVTSGGTIPDRGMYSVLLPEGEEKAGSRRVGELDEEMVYESRVNDIITLGATSWRIQQITRDQVIVTPAPGRSARLPFWRGEGNGRPAELGEMIGDFLHLLADGAFFSGTIPPWLAEENTIANIQGLIEEQRNATGIVPGSRHLVLERCRDEIGDWRIILHSPYGRRVHEPWAVAIAGRIHALWGADASVVASDDGIVARIPDTDGKLPDAAIFLFEPEKLLQIVREAVGSSALFAARFRECAARALLMPGRTPGHRTPLWQQRLRASQLLEIAQGYPDFPVILETLRECLQDVYDLPALERLMRRLNGGEIQISDVTTTTPSPFATSLLFGYVAEFMYQSDAPLAERRASVLSLDSELLRNLLGQVDPGELLDPQVIRQVEEELQRLAPGRRAKGEEGLFDLLRELGPMTVEDLAQRHTGSSEEVASYLENLLAVKRIFPAMISGQERLACMDDAARLRDALGVRLPESLPEIYLHRVSYPLRDLFLRYLRAHALVTAEQLAHEFSLGIAIVEEQLQQLREQGLVMNLQQDIWVSDEVFRRLRLRSLQAAREATRPVAATTYARLLLERQGVLPATDGSPALFASTSPGVYEGVDGVMRVIEQLAGVGLPASLWESQILPARVRDYSSEMLDELLATGAVIWSGQKKLGEDDGLVALHLQEYAAESFTPAEADQANRSALQQAIVAVLADGGAWFAQQISQRIRDKIGESVDLSALQEALWALVWQGVITSDIWAPLRALTRSSSNARTSTRRSHRARRGRPVYAQPVSPRVSYNTPNLAGRWSLLQVEPLNDTERMLALAENMLDRYGIISRQAVIAENIPGGFPSMQTLCRSMEDSGRIMRGRFVEGLGGAQFAERLTIDRLRDLATQATQTRHYTPVALSANDPANVWGNLLPWPAHPATLVPTRRAGALVVVSGGKLLLYLAQGGKKMLVWQEKEELLAPEVFHALTTALRREPRLRFTLTEVNDLPVRQTPMFTLLREAGFSSSPQGLDWG
For B1, the binding result was “binds”.

B2: MsmLhr C-terminal domain, MsmLhr-(863-1507) (domain or fragment, Mycobacterium smegmatis, UniProt A0QT91 863-1507, looked up)
chain: SPLAERRAAALALDTVLLSELLGRVELRELLDPAVVASTSAQLQHLTPERAARDAEGVADLLRLLGPLTEADIAQRCTADNIGAWLDGLHAAKRALPVTYAGQTWWAAVEDIGLLRDGIGVPVPVGVPAAFTESASDPLGDLIGRYARTRGPFTTEQTAARFGLGVRVASDVLSRMAVDGRLIRGEFAADLSGEQWCDAQVLKILRRRSLAALRAQVEPVSTDAYARFLPSWQHVGSTNTTGIDGLATVIEQLAGVPIPASAVESLVFPQRVRDYQPAMLDELLASGEVMWSGAGQIGNGDGWVAFHLADTAPLTLTHGAEIEFTDTHRVILETLGHGGAYFFRQLTDGTVEGTAGQELKQALWELIWAGWVTGDTFAPVRAVLSGPRRSGAPAHRQRQRPPRLSRYSVAHAQTRGTDPTVSGRWSALPAAEPDSTVRAHFQAELLLGRHGVLTKGAVGAEGVPGGFATLYKVLSTFEDAGRCQRGYFVESLGGAQFAVASTVDRLRSYLDNVDPERPEYHAVVLAATDPANPYGAALGWPTDSEAHRPGRKAGALVALVDGRLVWFLERGGRSLLSFGADADAQRAAAGALTDLVSAGRIPSLLVERINGVAVLDPDVDAERAVVQDALLGAGLSRTPRGLRLR
As to B2, the binding result was “binds”.
